Our source for the stoichiometry N values is article PMC10726167.

As usually defined, the stoichiometry N is a count of units in the complex or per binding partner.

The test addresses FIV Pr50^Gag-His6-tagged protein (feline immunodeficiency virus Gag precursor polyprotein) (feline immunodeficiency virus (Petaluma strain 34TF10)). In words: dynamic light scattering; purified Pr50^Gag in solution, HEPES-KOH buffer (pH 8); hydrodynamic radius from volume and number distribution.

“FIV Pr50^Gag-His6-tagged protein (feline immunodeficiency virus Gag precursor polyprotein) (natural protein)” showed a stoichiometry N of 2.
